The values below come from patent US20210253688A1 (UCB, published 2021).

T1: BMP4/7 heterodimer (human, UniProt P12644 293-408; P18075 293-431)
T1 sequence (looked up) 1: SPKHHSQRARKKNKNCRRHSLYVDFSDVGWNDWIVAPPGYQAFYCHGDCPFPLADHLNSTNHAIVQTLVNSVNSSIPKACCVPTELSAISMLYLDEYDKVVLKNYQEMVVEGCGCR
T1 sequence (looked up) 2: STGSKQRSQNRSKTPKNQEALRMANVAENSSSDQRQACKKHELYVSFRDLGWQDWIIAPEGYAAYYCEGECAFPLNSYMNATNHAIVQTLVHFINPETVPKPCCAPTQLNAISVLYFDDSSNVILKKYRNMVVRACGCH

T2: mouse Gremlin (mouse, UniProt O70326 25-184)
T2 sequence (looked up): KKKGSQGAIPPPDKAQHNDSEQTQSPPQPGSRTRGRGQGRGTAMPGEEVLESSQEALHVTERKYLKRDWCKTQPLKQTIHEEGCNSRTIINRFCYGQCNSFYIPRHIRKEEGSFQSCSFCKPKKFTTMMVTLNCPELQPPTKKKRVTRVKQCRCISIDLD

B1: truncated human Gremlin-1 (E. coli expressed, refolded, N-terminal 6His-TEV tag) (ligand)
chain: MGSSHHHHHHSSGENLYFQGSAMPGEEVLESSQEALHVTERKYLKRDWCKTQPLKQTIHEEGCNSRTIINRFCYGQCNSFYIPRHIRKEEGSFQSCSFCKPKKFTTMMVTLNCPELQPPTKKKRVTRVKQCRCISIDLD
B2: Ab7326 (format in the assay not stated) (antibody, V domains shown)
VH: QVQLVESGAEVKKPGATVKISCKVSGYTFTDYYMHWVQQAPGKGLEWMGLVDPEDGETIYAEKFQGRVTITADTSTDTAYMELSSLRSEDTAVYYCATDARGSGSYYPNHFDYWGQGTLVTVSS
VL: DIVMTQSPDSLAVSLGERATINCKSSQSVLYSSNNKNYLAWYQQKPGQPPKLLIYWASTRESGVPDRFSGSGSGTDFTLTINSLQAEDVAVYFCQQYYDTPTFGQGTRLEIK
B3: Ab7326 mouse full length IgG1 (antibody, V domains shown)
VH: B2 VH
VL: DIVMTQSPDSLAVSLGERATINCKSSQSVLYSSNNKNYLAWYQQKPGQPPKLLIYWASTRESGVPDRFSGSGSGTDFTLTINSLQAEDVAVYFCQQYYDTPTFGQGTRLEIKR
notes: also called anti-Gremlin mIgG; UCB Ab7326 mouse IgG1
B4: human Gremlin-1 (full length; recombinant human Gremlin 1) (ligand)
chain: T2 sequence (looked up) with P27Q, T33N

Substitutions are numbered along the chain they refer to. Some results are limits rather than exact numbers.

One assay has as its target T1, BMP4/7 heterodimer. The experiment in a line: cell-based or functional assay.
Another assay has as its target T2, mouse Gremlin. The experiment in a line: cell-based or functional assay.
Assay [1] concerns the target B4. Put plainly: cell-based or functional assay.
Assay [2] addresses B4. The experiment in a line: SPR, Biacore T200, 25 °C; mIgG captured on anti-mouse Fc, recombinant human Gremlin 1 titrated from 5 nM; average of 5 determinations. On the procedure: The affinity of anti-Gremlin mIgG for human Gremlin 1 was determined by biamolecular interaction analysis using surface plasmon resonance (SPR) technology on a Biacore T200 system, GE Healthcare Bio-Sciences AB. Anti-Gremlin mIgG was captured by an immobilised anti-mouse Fc surface and Gremlin 1 was titrated over the captured mIgG. The capture ligand (affinipure F(ab′)₂ fragment of goat anti-mouse IgG, Fc fragment specific, 115-006-071, Jackson ImmunoResearch Inc.) was immobilised at 50 μg/ml in 10 mM NaAc, pH 5.0 on flow cell 2 of a CM4 Sensor Chip via amine coupling chemistry, using 600 s activation and deactivation injections, to a level of ˜1600 response units (RU). HBS-EP+ buffer (0.01 M HEPES pH 7.4, 0.15 M NaCl, 3 mM EDTA, 0.05% Surfactant P20) was used as the running buffer with a flow rate of 10 μ1/min. A reference surface was prepared on flow cell 1 by activating and deactivating the surface as for flow cell 2 but omitting the capture ligand.
The assay buffer was HBS-EP+ plus an extra 150 mM NaCl to give a final NaCl concentration of 300 mM plus 1% CMD40. A 60 s injection of anti-Gremlin mIgG (at 5 μg/ml in running buffer) was passed over flow cells 1 and 2 to give a capture level of approximately 100 RU on the immobilised anti-mouse IgG, Fc surface. […]
The kinetic data was determined using Biacore T200 evaluation software.

As a reminder, the Kd is the concentration at which binding is half-saturated.

For the molecule B1, the “IC50, Hek-Id1 reporter gene assay, geometric mean (N=2)” value in the assay with BMP4/7 heterodimer is 1.7 nM.

As for B2, the “IC50, Hek-Id1 reporter gene assay, restoration of BMP signalling” value with mouse Gremlin came to 0.2 nM; in assay [1], 1.3 nM.

B3: in assay [2], the Kd was under 0.1 nM.

Take B4: the “IC50, Hek-Id1 reporter gene assay, geometric mean (N=2)” value with BMP4/7 heterodimer was found to be 1.6 nM.
